From US20060040881

Tested on: Coagulation factor IX/IXa (Macaca fascicularis)
Test: inhibition
Conditions: guggaCUaUaCCgCgUaaUgCuGcCUccacT; lower case 2'-OMe, upper case C/U 2'-F, upper case A/G 2'-OH, 3' idT; concentration inhibiting about 90% of plasma FIX activity (APTT 1.6-fold); >95% at 10-12 ug/mL; cynomolgus plasma; text cites Apt39 as SEQ ID NO:88

In the case of GUGGACUAUACCGCGUAAUGCUGCCUCCAC [Apt39], the activity is reported as 6 µg/mL.
